Results as given in the supplement of paper PMC5998384.

Assays:
[1] = tested on: HeLa Kyoto; test: melting temperature (median over replicates), in situ; higher = more thermally stable
[2] = tested on: HeLa Kyoto; test: solubility change mitosis vs G1/S (difference of NP-40 vs SDS log2 ratios) (log2 ratio difference); higher = more soluble in mitosis
[3] = tested on: HeLa Kyoto; test: thermal stability score vs G1/S (z-score of summed log2 fold changes over temperatures); higher = more thermally stable than in G1/S
[4] = tested on: HeLa Kyoto; test: solubility in G1/S (NP-40 vs SDS abundance) (log2 ratio); higher = more soluble; conditions: cell cycle stage: G1/S
[5] = cell cycle stage: early G1 (4.5 h after nocodazole release)
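For melting temperature (median over replicates), in situ in this document: HeLa Kyoto cells synchronized by double thymidine or nocodazole block, proteins quantified by TMT10plex mass spectrometry, three independent biological replicates.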
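For solubility change mitosis vs G1/S (difference of NP-40 vs SDS log2 ratios) in this document: synchronized HeLa Kyoto cells (double thymidine block for G1/S, nocodazole release for mitosis), protein amounts in NP-40 versus SDS lysates quantified by mass spectrometry, three biological replicates.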
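For solubility in G1/S (NP-40 vs SDS abundance) in this document: HeLa Kyoto cells arrested at G1/S by double thymidine block, proteins quantified by TMT10plex mass spectrometry in mild NP-40 versus SDS extracts, three biological replicates.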
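For thermal stability score vs G1/S (z-score of summed log2 fold changes over temperatures) in this document: synchronized HeLa Kyoto cells, proteins quantified by TMT10plex mass spectrometry, three biological replicates, mitosis taken 0.5 h after nocodazole release, G1/S directly after double thymidine block.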

Row | Sequence | melting temperature ([1]; cell cycle stage: G1/S) | melting temperature ([1]; cell cycle stage: mitosis) | solubility change mitosis (log2) [2] | thermal stability score [3, 5] | thermal stability score ([3]; cell cycle stage: mitosis) | solubility in G1/S (log2) [4]
1 | MATAAETSASEPEAESKAGPKADGEEDEVKAARTRRKVLSRAVAAATYKTMGPAWDQQEEGVSESDGDEYAMASSAESSPGEYEWEYDEEEEKNQLEIERLEEQLSINVYDYNCHVDLIRLLRLEGELTKVRMARQKMSEIFPLTEELWLEWLHDEISMAQDGLDREHVYDLFEKAVKDYICPNIWLEYGQYSVGGIGQKGGLEKVRSVFERALSSVGLHMTKGLALWEAYREFESAIVEAARLEKVHSLFRRQLAIPLYDMEATFAEYEEWSEDPIPESVIQNYNKALQQLEKYKPYEEALLQAEAPRLAEYQAYIDFEMKIGDPARIQLIFERALVENCLVPDLWIRYSQYLDRQLKVKDLVLSVHNRAIRNCPWTVALWSRYLLAMERHGVDHQVISVTFEKALNAGFIQATDYVEIWQAYLDYLRRRVDFKQDSSKELEELRAAFTRALEYLKQEVEERFNESGDPSCVIMQNWARIEARLCNNMQKARELWDSIMTRGNAKYANMWLEYYNLERAHGDTQHCRKALHRAVQCTSDYPEHVCEVLLTMERTEGSLEDWDIAVQKTETRLARVNEQRMKAAEKEAALVQQEEEKAEQRKRARAEKKALKKKKKIRGPEKRGADEDDEKEWGDDEEEQPSKRRRVENSIPAAGETQNVEVAAGPAGKCAAVDVEPPSKQKEKAASLKRDMPKVLHDSSKDSITVFVSNLPYSMQEPDTKLRPLFEACGEVVQIRPIFSNRGDFRGYCYVEFKEEKSALQALEMDRKSVEGRPMFVSPCVDKSKNPDFKVFRYSTSLEKHKLFISGLPFSCTKEELEEICKAHGTVKDLRLVTNRAGKPKGLAYVEYENESQASQAVMKMDGMTIKENIIKVAISNPPQRKVPEKPETRKAPGGPMLLPQTYGARGKGRTQLSLLPRALQRPSAAAPQAENGPAAAPAVAAPAATEAPKMSNADFAKLFLRK [SART3] | 48.2 °C | 49.2 °C | -0.103 | 1.98 | 4.74 | -0.112
2 | MATAALLRGATPGRGGPVWRWRLRAAPRCRLAHSSCSPGGDPTAGAAWACFRLDGRTLLRVRGPDAAPFLLGLLTNELPLPSPAAAGAPPAARAGYAHFLNVQGRTLYDVILYGLQEHSEVSGFLLECDSSVQGALQKHLALYRIRRKVTVEPHPELRVWAVLPSSPEACGAASLQERAGAAAILIRDPRTARMGWRLLTQDEGPALVPGGRLGDLWDYHQHRYLQGVPEGVRDLPPGVALPLESNLAFMNGVSFTKGCYIGQELTARTHHMGVIRKRLFPVRFLDPLPTSGITPGATVLTASGQTVGKFRAGQGNVGLALLWSEKIKGPLHIRASEGAQVALAASVPDWWPTVSK [IBA57] | 52.8 °C | 52.4 °C | 0.132 | 0.0549 | -0.552 | -0.246
3 | MATALALRSLYRARPSLRCPPVELPWAPRRGHRLSPADDELYQRTRISLLQREAAQAMYIDSYNSRGFMINGNRVLGPCALLPHSVVQWNVGSHQDITEDSFSLFWLLEPRIEIVVVGTGDRTERLQSQVLQAMRQRGIAVEVQDTPNACATFNFLCHEGRVTGAALIPPPGGTSLTSLGQAAQ [NDUFAF3] | 53.4 °C | 53.5 °C | -0.0203 | -0.2 | -2.08 | 0.117
4 | MATALSEEELDNEDYYSLLNVRREASSEELKAAYRRLCMLYHPDKHRDPELKSQAERLFNLVHQAYEVLSDPQTRAIYDIYGKRGLEMEGWEVVERRRTPAEIREEFERLQREREERRLQQRTNPKGTISVGVDATDLFDRYDEEYEDVSGSSFPQIEINKMHISQSIEAPLTATDTAILSGSLSTQNGNGGGSINFALRRVTSAKGWGELEFGAGDLQGPLFGLKLFRNLTPRCFVTTNCALQFSSRGIRPGLTTVLARNLDKNTVGYLQWRWGIQSAMNTSIVRDTKTSHFTVALQLGIPHSFALISYQHKFQDDDQTRVKGSLKAGFFGTVVEYGAERKISRHSVLGAAVSVGVPQGVSLKVKLNRASQTYFFPIHLTDQLLPSAMFYATVGPLVVYFAMHRLIIKPYLRAQKEKELEKQRESAATDVLQKKQEAESAVRLMQESVRRIIEAEESRMGLIIVNAWYGKFVNDKSRKSEKVKVIDVTVPLQCLVKDSKLILTEASKAGLPGFYDPCVGEEKNLKVLYQFRGVLHQVMVLDSEALRIPKQSHRIDTDG [DNAJC11] | 52.6 °C | 52.3 °C | -0.0355 | 0.0819 | -0.993 | -0.172
5 | MATASPAADGGRGRPWEGGLVSWPPAPPLTLPWTWMGPSWGQHPGHWGFPALTEPSASPAAGLGIFEVRRVLDASGCSMLAPLQTGAARFSSYLLSRARKVLGSHLFSPCGVPEFCSISTRKLAAHGFGASMAAMVSFPPQRYHYFLVLDFEATCDKPQIHPQEIIEFPILKLNGRTMEIESTFHMYVQPVVHPQLTPFCTELTGIIQAMVDGQPSLQQVLERVDEWMAKEGLLDPNVKSIFVTCGDWDLKVMLPGQCQYLGLPVADYFKQWINLKKAYSFAMGCWPKNGLLDMNKGLSLQHIGRPHSGIDDCKNIANIMKTLAYRGFIFKQTSKPF [ERI3] |  | 54.7 °C | -0.0837 | 0.384 | -0.0416 | 0.0291
6 | MATEHVNGNGTEEPMDTTSAVIHSENFQTLLDAGLPQKVAEKLDEIYVAGLVAHSDLDERAIEALKEFNEDGALAVLQQFKDSDLSHVQNKSAFLCGVMKTYRQREKQGTKVADSSKGPDEAKIKALLERTGYTLDVTTGQRKYGGPPPDSVYSGQQPSVGTEIFVGKIPRDLFEDELVPLFEKAGPIWDLRLMMDPLTGLNRGYAFVTFCTKEAAQEAVKLYNNHEIRSGKHIGVCISVANNRLFVGSIPKSKTKEQILEEFSKVTEGLTDVILYHQPDDKKKNRGFCFLEYEDHKTAAQARRRLMSGKVKVWGNVGTVEWADPIEDPDPEVMAKVKVLFVRNLANTVTEEILEKAFSQFGKLERVKKLKDYAFIHFDERDGAVKAMEEMNGKDLEGENIEIVFAKPPDQKRKERKAQRQAAKNQMYDDYYYYGPPHMPPPTRGRGRGGRGGYGYPPDYYGYEDYYDYYGYDYHNYRGGYEDPYYGYEDFQVGARGRGGRGARGAAPSRGRGAAPPRGRAGYSQRGGPGSARGVRGARGGAQQQRGRGVRGARGGRGGNVGGKRKADGYNQPDSKRRQTNNQNWGSQPIAQQPLQGGDHSGNYGYKSENQEFYQDTFGQQWK [SYNCRIP] | 51.3 °C | 50.8 °C | 0.0879 | -1.08 | -0.356 | 0.0281
7 | MATEQRPFHLVVFGASGFTGQFVTEEVAREQVDPERSSRLPWAVAGRSREKLQRVLEKAALKLGRPTLSSEVGIIICDIANPASLDEMAKQATVVLNCVGPYRFYGEPVIKACIENGASCIDISGEPQFLELMQLKYHEKAADKGVYIIGSSGFDSIPADLGVIYTRNKMNGTLTAVESFLTIHSGPEGLSIHDGTWKSAIYGFGDQSNLRKLRNVSNLKPVPLIGPKLKRRWPISYCRELKGYSIPFMGSDVSVVRRTQRYLYENLEESPVQYAAYVTVGGITSVIKLMFAGLFFLFFVRFGIGRQLLIKFPWFFSFGYFSKQGPTQKQIDAASFTLTFFGQGYSQGTGTDKNKPNIKICTQVKGPEAGYVATPIAMVQAAMTLLSDASHLPKAGGVFTPGAAFSKTKLIDRLNKHGIEFSVISSSEV [SCCPDH] | 53.2 °C | 54 °C | 0.0063 | 0.42 | -2.32 | -0.086
8 | MATGGYRTSSGLGGSTTDFLEEWKAKREKMRAKQNPPGPAPPGGGSSDAAGKPPAGALGTPAAAAANELNNNLPGGAPAAPAVPGPGGVNCAVGSAMLTRAAPGPRRSEDEPPAASASAAPPPQRDEEEPDGVPEKGKSSGPSARKGKGQIEKRKLREKRRSTGVVNIPAAECLDEYEDDEAGQKERKREDAITQQNTIQNEAVNLLDPGSSYLLQEPPRTVSGRYKSTTSVSEEDVSSRYSRTDRSGFPRYNRDANVSGTLVSSSTLEKKIEDLEKEVVRERQENLRLVRLMQDKEEMIGKLKEEIDLLNRDLDDIEDENEQLKQENKTLLKVVGQLTR [PAWR] | 60.6 °C | 55.7 °C | 0.127 | -0.931 | -1.76 | 0.552
9 | MATGQKLMRAVRVFEFGGPEVLKLRSDIAVPIPKDHQVLIKVHACGVNPVETYIRSGTYSRKPLLPYTPGSDVAGVIEAVGDNASAFKKGDRVFTSSTISGGYAEYALAADHTVYKLPEKLDFKQGAAIGIPYFTAYRALIHSACVKAGESVLVHGASGGVGLAACQIARAYGLKILGTAGTEEGQKIVLQNGAHEVFNHREVNYIDKIKKYVGEKGIDIIIEMLANVNLSKDLSLLSHGGRVIVVGSRGTIEINPRDTMAKESSIIGVTLFSSTKEEFQQYAAALQAGMEIGWLKPVIGSQYPLEKVAEAHENIIHGSGATGKMILLL [CRYZ] | 55.2 °C | 55 °C | -0.187 | -0.614 | -0.806 | 0.212
